Source: patent publication US20250262244A1 (published 2025)

T1: EWSR1/WT1 fusion protein (junction of EWS and WT1) peptide on HLA-A*03 (human)
T1 peptide: SSYGQQSEK

T2: EWSR1/WT1 fusion protein (junction of EWS and WT1) peptide on HLA-A*11 (human)
T2 peptide: SSYGQQSEK

B1: TCR14 (TCR, V domains shown)
Valpha: GQQLNQSPQSMFIQEGEDVSMNCTSSSIFNTWLWYKQDPGEGPVLLIALYKAGELTSNGRLTAQFGITRKDSFLNISASIPSDVGIYFCAGQGASGTYKYIFGTGTRLKVLA
Vbeta: DAGVIQSPRHEVTEMGQEVTLRCKPISGHNSLFWYRQTMMRGLELLIYFNNNVPIDDSGMPEDRFSAKMPNASFSTLKIQPSEPRDSAVYFCASSPGTSDEFFGPGTRLTVL
B2: TCR12 (TCR, V domains shown)
Valpha: AQKVTQAQTEISVVEKEDVTLDCVYETRDTTYYLFWYKQPPSGELVFLIRRNSFDEQNEISGRYSWNFQKSTSSFNFTITASQVVDSAVYFCALSEMQGGSEKLVFGKGTKLTVNP
Vbeta: DSGVTQTPKHLITATGQRVTLRCSPRSGDLSVYWYQQSLDQGLQFLIHYYNGEERAKGNILERFSAQQFPDLHSELNLSSLELGDSALYFCASSTSSGSPDTQYFGPGTRLTVL
B3: TCR15 (TCR, V domains shown)
Valpha: QKEVEQDPGPLSVPEGAIVSLNCTYSNSAFQYFMWYRQYSRKGPELLMYTYSSGNKEDGRFTAQVDKSSKYISLFIRDSQPSDSATYLCAMGGGSNYKLTFGKGTLLTVNP
Vbeta: DSGVTQTPKHLITATGQRVTLRCSPRSGDLSVYWYQQSLDQGLQFLIQYYNGEERAKGNILERFSAQQFPDLHSELNLSSLELGDSALYFCASSPPGQTNYGYTFGSGTRLTVV

Legend:
[1] = biological target: T1, EWSR1/WT1 fusion protein (junction of …); assay: multimer staining
[2] = biological target: T2, EWSR1/WT1 fusion protein (junction of …); assay: cytokine release
[3] = biological target: T1, EWSR1/WT1 fusion protein (junction of …); assay: cytokine release

| Binder | binding result [1] | binding result [2] | binding result [3] |
| --- | --- | --- | --- |
| B1 | recognises | – | – |
| B2 | recognises | – | – |
| B3 | – | recognises | recognises |
